Experimental findings from patent US20200071424A1 (SHIONOGI, published 2020) are described below.

Assay [1] deals with baboon EL (baboon). Description: cell-based or functional assay.
Assay [2] addresses cynomolgus monkey EL (cynomolgus monkey). As to the kind of experiment: cell-based or functional assay.
For the next assay, the target named is rabbit EL (rabbit). As to the kind of experiment: cell-based or functional assay.
In assay [3] the target is human-mouse chimeric EL (construct not specified). As to the kind of experiment: cell-based or functional assay.
The target in assay [4] is T1, human [1-305]-mouse chimeric EL (human; mouse, UniProt Q9WVG5 306-500).
T1 sequence: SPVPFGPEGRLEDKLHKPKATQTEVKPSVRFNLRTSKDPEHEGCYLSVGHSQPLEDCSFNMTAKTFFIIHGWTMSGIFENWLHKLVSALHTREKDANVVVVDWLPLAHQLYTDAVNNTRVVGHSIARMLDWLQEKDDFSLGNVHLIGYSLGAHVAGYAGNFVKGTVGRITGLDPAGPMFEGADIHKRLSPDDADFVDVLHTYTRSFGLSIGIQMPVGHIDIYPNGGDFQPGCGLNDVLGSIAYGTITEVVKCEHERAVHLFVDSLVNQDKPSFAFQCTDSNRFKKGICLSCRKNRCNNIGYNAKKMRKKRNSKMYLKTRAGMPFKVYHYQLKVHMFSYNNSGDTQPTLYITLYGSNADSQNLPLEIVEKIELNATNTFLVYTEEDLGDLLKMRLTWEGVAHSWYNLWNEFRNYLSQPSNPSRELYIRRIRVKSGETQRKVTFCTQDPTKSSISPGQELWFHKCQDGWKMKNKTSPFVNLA
As to the kind of experiment: cell-based or functional assay.

Assay [5] has as its target cynomolgus monkey EL (cynomolgus monkey). Description: cell-based or functional assay. The source holds these as a separate data set.
Assay [6] deals with T2, baboon EL (baboon).
T2 construct: Heparin extract
Description: Biacore; EL captured by anti-C2-tag Ab; bivalent fit. The method, then:
(§1) The binding affinities of anti-EL antibodies were measured using Biacore. […] Then, anti-EL antibodies were added and the binding affinities were calculated by bivalent fitting of BIAevaluation software.

The target of assay [7] is T3, cynomolgus monkey EL (cynomolgus monkey).
T3 construct: Heparin extract; also called cynomolgus EL; Cynomolgus EL
Described as above. As to the method:
as §1

The target of assay [8] is T1, human [1-305]-mouse chimeric EL. Described as above. As to the method:
as §1

The target in assay [9] is T2, baboon EL. Description: ELISA: antibody captured on anti-mouse IgG-Fc plate, EL heparin extract added, detection with biotin anti-C2-tag antibody and HRP-streptavidin, A450. The method, then:
(§2) Assay buffer containing 15 μl of anti-EL antibody was added to anti-mouse IgG-Fc antibody-immobilized microtiter plate, and incubated for 2 hr. […] After washing the wells three times with 90 μL of washing buffer, 15 μl of assay buffer containing biotin-labeled anti-C2-tag antibody and HRP-labeled Streptavidin were added to the wells and incubated at room temperature for 1 hr. After washing the wells three times with 90 μL of washing buffer, 15 μL of TMB+—Substrate—Chromogen (DAKO) was added and incubated at room temperature for 30 min and then 15 μL of 0.05 M H2SO₄ was added and absorbance at 450 nm was measured (FIG. 3A to 3K).

The target of assay [10] is T3, cynomolgus monkey EL. Described as above. As to the method:
as §2

For a further assay, the target named is T4, mouse EL (mouse, UniProt Q9WVG5 21-500).
T4 construct: Heparin extract
T4 sequence (looked up): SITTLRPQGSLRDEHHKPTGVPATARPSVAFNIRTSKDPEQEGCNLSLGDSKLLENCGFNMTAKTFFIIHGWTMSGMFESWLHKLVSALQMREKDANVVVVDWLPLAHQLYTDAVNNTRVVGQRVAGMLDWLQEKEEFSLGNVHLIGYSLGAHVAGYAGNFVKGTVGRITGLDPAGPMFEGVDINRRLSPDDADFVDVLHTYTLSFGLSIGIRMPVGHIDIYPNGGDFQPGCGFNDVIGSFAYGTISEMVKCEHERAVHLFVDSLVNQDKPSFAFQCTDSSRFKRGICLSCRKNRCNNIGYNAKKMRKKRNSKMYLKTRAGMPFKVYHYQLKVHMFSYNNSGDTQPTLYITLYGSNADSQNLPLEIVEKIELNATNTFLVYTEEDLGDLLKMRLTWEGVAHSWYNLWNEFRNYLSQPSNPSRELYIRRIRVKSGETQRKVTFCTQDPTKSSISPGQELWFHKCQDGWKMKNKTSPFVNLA
Described as above. As to the method: as §2

The target of assay [11] is T1, human [1-305]-mouse chimeric EL. The assay is described as above. As to the method: as §2
Assay [12] addresses T5, human [202-500]-mouse chimeric EL (mouse; human, UniProt Q9WVG5 21-201).
T5 construct: Heparin extract, detected by an anti-C2-tag antibody
T5 sequence: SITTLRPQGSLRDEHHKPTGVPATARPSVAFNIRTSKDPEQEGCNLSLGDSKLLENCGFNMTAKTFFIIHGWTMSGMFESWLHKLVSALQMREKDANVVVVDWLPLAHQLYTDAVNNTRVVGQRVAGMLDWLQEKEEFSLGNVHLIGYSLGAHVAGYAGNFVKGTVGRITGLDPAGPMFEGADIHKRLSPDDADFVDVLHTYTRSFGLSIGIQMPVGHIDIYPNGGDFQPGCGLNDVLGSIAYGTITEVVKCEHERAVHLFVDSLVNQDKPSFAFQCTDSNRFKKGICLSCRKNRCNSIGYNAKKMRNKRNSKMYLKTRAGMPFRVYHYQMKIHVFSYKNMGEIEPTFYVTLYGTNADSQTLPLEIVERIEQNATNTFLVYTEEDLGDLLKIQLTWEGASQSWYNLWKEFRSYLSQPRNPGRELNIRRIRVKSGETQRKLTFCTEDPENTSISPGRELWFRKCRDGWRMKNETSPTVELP
Described as above. As to the method:
as §2

Assay [13] deals with T6, human [1-157]-mouse chimeric EL (human; mouse, UniProt Q9WVG5 158-500).
T6 construct: Heparin extract, detected by an anti-C2-tag antibody
T6 sequence: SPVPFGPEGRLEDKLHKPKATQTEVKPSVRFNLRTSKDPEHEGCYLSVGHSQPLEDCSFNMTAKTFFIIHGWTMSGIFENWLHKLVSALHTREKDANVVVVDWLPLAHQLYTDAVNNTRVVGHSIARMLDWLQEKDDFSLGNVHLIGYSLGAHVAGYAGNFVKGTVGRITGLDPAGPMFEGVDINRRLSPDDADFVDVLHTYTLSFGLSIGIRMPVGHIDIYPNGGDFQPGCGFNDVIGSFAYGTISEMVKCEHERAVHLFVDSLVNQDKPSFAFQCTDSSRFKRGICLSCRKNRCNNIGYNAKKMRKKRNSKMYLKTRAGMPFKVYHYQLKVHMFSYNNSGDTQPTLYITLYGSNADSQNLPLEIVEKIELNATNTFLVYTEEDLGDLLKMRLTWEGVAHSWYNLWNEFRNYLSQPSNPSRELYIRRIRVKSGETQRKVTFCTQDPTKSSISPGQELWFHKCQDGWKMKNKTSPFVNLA
Described as above. As to the method:
as §2

Where two headings read alike, the source gives them in different places.

B1: 16B3 (antibody, mouse IgG2a, V domains shown)
VH: DVKLVESGGGLVQPGGSLKLSCTASGFTFSGYTMSWVRQTPEKRLELVAEISFARDRAFYPDTVKGRFTISRDNAKNTLYLQMSSLKSEDTAMYYCTRLGGRNHDYWYFDVWGTGTTVTVSS
VL: DIVLTQSPTSLAVSPGQRATISCRASESVEYYGTSLMQWYQQKPGQRPQLLIYAASNVESGVPARFSGSGSGTDFSLNIHPVEEDDIAVYFCQQSWKVPFTFGSGTKLEIK
notes: mouse IgG2a from hybridoma; also called 16B3 (mouse mAb)
The term koff denotes a measure of how fast the partners let go of each other. As a reminder, the kon is a measure of how fast the partners come together. In general, EC50 (read off the curve) refers to the midpoint of the concentration-response curve. Turning to B1, the “Neutralizing activity IC50” value in the assay with baboon EL [1] turned out to be 3 nM; in the assay with cynomolgus monkey EL [2], 1.9 nM; with rabbit EL, 6.3 nM; in [3], 1.3 nM; in assay [4], 1.3 nM; in the assay with cynomolgus monkey EL [5] it was 1.8 nM. The Kd with baboon EL [6] worked out at 3.2 nM; with cynomolgus monkey EL [7], 2.1 nM; in assay [8] it was 3.7 nM. Also, the koff with baboon EL [6] came out at 9.8e-05 s⁻¹; in the assay with cynomolgus monkey EL [7], 8.9e-05 s⁻¹; in assay [8], 0.00019 s⁻¹. Besides, the kon worked out at 31000 M⁻¹ s⁻¹ with baboon EL [6], 42000 M⁻¹ s⁻¹ with cynomolgus monkey EL [7] and 51000 M⁻¹ s⁻¹ in [8]. Besides, the “EC50 (read off the curve)” value is around 5 ng/mL with baboon EL [9], around 4 ng/mL with cynomolgus monkey EL [10], around 3 ng/mL in [11] and around 4 ng/mL in assay [12]. Moreover, in the assay with mouse EL, the binding result was “no binding (tested: about 330 ng/mL)”.

B2: 16E7 (antibody, mouse IgG1, V domains shown)
VH: EVKLVESGGGLVQPGGSLKLSCAASGFTFSSYTMSWVRQTPEKRLELVAEISFTRSRAFYPDTVKGRFTISRDNAKNTLYLQMSSLKSEDTAMYYCARLGGNNYDYWYFDVWGTGTTVTVSS
VL: DIVLTQSPTSLAVSLGQRATISCRASESVEYYGTSLMQWYQQKPGQRPKLLIYAASNVESGVPARFSGSGSGTDFSLNIHPVEEDDIAMYFCQQSWKVPFTFGSGTKLEIK
notes: mouse IgG1 from hybridoma
As for B2, the “Neutralizing activity IC50” value is 2.1 nM with baboon EL [1], 2.5 nM with cynomolgus monkey EL [2], above 40 nM with rabbit EL and 1.1 nM in assay [3]. In addition, the Kd was determined as 4.7 nM with baboon EL [6] and 1.1 nM in assay [8]. Further, the figures for the koff (in the assay with baboon EL [6]; in assay [8]) were 0.00025 s⁻¹ and 0.0001 s⁻¹, respectively. Besides, the kon was found to be 53000 M⁻¹ s⁻¹ with baboon EL [6] and 95000 M⁻¹ s⁻¹ in [8]. Also, the “EC50 (read off the curve)” value is around 6 ng/mL with cynomolgus monkey EL [10], around 6 ng/mL in assay [11] and around 8 ng/mL in assay [12].

B3: 19E7 (antibody, mouse IgG2a, V domains shown)
VH: QVQLQQPGSVLVRPGASVKLSCKASGYTFTTYWMHWVKQRPGQGLEWIGEIHPYSGNNNNNEKFKGKATLTVDTSSSTAYVDLSRLTSEDSAVYYCARYDSNYVFAYWGQGTLVTVSA
VL: QIVLTQSPAIMSASPGEGVTITCSASSSVSYMHWFQQKPGTSPKLWIYSTSNLASGVPARFSGSGSGTSYSLTISRMEAEDAATYYCQQRDSYLTFGSGTKLEVK
notes: mouse IgG2a from hybridoma; also called 19E1(19E7)
In the case of B3, the “Neutralizing activity IC50” value in the assay with baboon EL [1] amounted to 2 nM; in the assay with cynomolgus monkey EL [2], 1.7 nM; with rabbit EL, 5.7 nM; in assay [3], 2.4 nM. The same molecule yielded a Kd with cynomolgus monkey EL [7] of 3.3 nM. The dissociation rate constant (koff) in the assay with cynomolgus monkey EL [7] was found to be 0.00018 s⁻¹. Moreover, the kon with cynomolgus monkey EL [7] is 55000 M⁻¹ s⁻¹. The “EC50 (read off the curve)” value in the assay with cynomolgus monkey EL [10] is around 30 ng/mL; in assay [11], around 6 ng/mL. Moreover, the binding result (with mouse EL; in assay [13]) was “no binding (tested: about 330 ng/mL)” in each case.

B4: 14E1 (antibody, mouse IgG1, V domains shown)
VH: QVQLQQSGAELVKPGASVRLSCKASGYTFTKYTIHWVKQRSGQGLEWIGWFYPGSDSIKYNEKFKDKATLTADKSSRTVYMELSRLTSEDSAVYFCARHEEYTNSLAYWGQGTLVTVSA
VL: DIQMTQTTSSLSASLGDRVTISCRASQDISNYLNWYQQQPDGTVKLLIYYTSRLHSGVPSRFSGSGSGTDYSLTISNLEQEDIATYFCQQGYTLPWTFGGGTNLEIK
notes: mouse IgG1 from hybridoma
Turning to B4, the “Neutralizing activity IC50” value with baboon EL [1] came out at 3.3 nM; in the assay with cynomolgus monkey EL [2], 2.4 nM; with rabbit EL, 5.9 nM; in assay [3], 1.4 nM. Also, the Kd with baboon EL [6] came to 5.8 nM; with cynomolgus monkey EL [7], 5.9 nM; in assay [8], 5.4 nM. The koff is 0.00085 s⁻¹ with baboon EL [6], 0.00069 s⁻¹ in the assay with cynomolgus monkey EL [7] and 0.00023 s⁻¹ in assay [8]. Further, the kon with baboon EL [6] came to 150000 M⁻¹ s⁻¹; with cynomolgus monkey EL [7] it was 120000 M⁻¹ s⁻¹; in [8] it was 42000 M⁻¹ s⁻¹. The 50% effective concentration (EC50 (read off the curve)) was around 20 ng/mL with baboon EL [9], around 10 ng/mL with cynomolgus monkey EL [10], around 7 ng/mL in assay [11] and around 20 ng/mL in assay [12].
